{"source": "patent US20150361149A1", "about": "(FLORIDA STATE UNIVERSITY RESEARCH FOUNDATION, published 2015)", "molecules": {"B1": {"name": "peptide fragment of FGF-1, residues 94-140 (third trefoil-fold subdomain) (peptide, UniProt P05230 109-155, looked up)", "peptide": "YNTYISKKHAEKNWFVGLKKNGSCKRGPRTHYGQKAILFLPLPVSSD"}, "B2": {"name": "Difoil-4PΔ1-10 (other)", "chain": "HHHHHHPVLLKSTETGQYLRINPDGTVDGTRDRSDPHIQFQISPEGNGEVLLKSTETGQYLRINPDGTVDGTRDRSDPHIQFQISPEGNG", "notes": "Form used for crystallisation (PDB 3OGF); Three chains make two β-trefoil folds; also called Difoil-4P* (Δ1-10 mutant form)"}, "B3": {"name": "peptide fragment of FGF-1, residues 10-52 (first trefoil-fold subdomain) (peptide, UniProt P05230 25-67, looked up)", "peptide": "KPKLLYCSNGGHFLRILPDGTVDGTRDRSDQHIQLQLSAESVG"}, "B4": {"name": "peptide fragment of FGF-1, residues 53-93 (second trefoil-fold subdomain) (peptide, UniProt P05230 68-108, looked up)", "peptide": "EVYIKSTETGQYLAMDTDGLLYGSQTPNEECLFLERLEENH"}}, "key": {"[1]": {"target": "FGFR on NIH 3T3 fibroblasts", "assay": "cell-based or functional assay"}, "[2]": {"target": "the molecule itself", "assay": "size-exclusion chromatography of peptide fragments"}, "[3]": {"target": "the molecule itself", "assay": "X-ray crystal structure (Δ1-10 form)", "source_text": "Crystals of Monofoil-4PΔ1-10 and Difoil-4PΔ1-10 grew in 2 M ammonium sulfate, 0.1 M Na citrate pH 5.5. Crystals were mounted in a stream of gaseous nitrogen at 100 K and diffraction data were collected at either the Southeast Regional Collaborative Access Team 22-BM beam line (λ=1.00 Å) at the Advanced Photon Source, Argonne National Laboratory, using a MarCCD 300 detector (Mar USA) or at the X25 beam line of the National Synchrotron Light Source at Brookhaven National Laboratory, using an ADSC Q315 CCD detector. Each dataset was collected from a single crystal except Monofoil-4PΔ1-10 and Difoil-4PΔ1-10. Datasets from two crystals of Monofoil-4PΔ1-10 were combined for better completion and redundancy.\nDiffraction data were indexed, integrated, and scaled using the HKL2000 software package (Otwinowski Z (1993) Proceedings of the CCP4 Study Weekend: “Data Collection and Processing”, eds Sawyer L, Isaacs N, Bailey S (Science and Engineering Research Council, Daresbury Laboratory, England), pp 56-62 and Otwinowski Z and MinorW (1997) Meth Enzymol 276:307-326). Molecular replacement and model building utilized the PHENIX software package (Zwart P H et al. (2008) Methods Mol Biol 426:419-435), with 5% of the data in the reflection files set aside for Rfree calculations (Brunger A T (1992) Nature 355:472-475). […]"}}, "data": [{"molecule": "human fibroblast growth factor-1 (FGF-1), 140 amino acid form (from UniProt P05230 16-155) (ligand)", "values": [{"measurement": "mitogenic activity with 3T3 fibroblasts, EC50", "setting": "[1]", "result": 0.0584, "unit": "µg/mL"}]}, {"molecule": "B1", "values": [{"measurement": "binding result", "setting": "[2]", "result": "no binding"}]}, {"molecule": "B2", "values": [{"measurement": "binding result", "setting": "[3]", "result": "binds"}]}, {"molecule": "B3", "values": [{"measurement": "binding result", "setting": "[2]", "result": "no binding"}]}, {"molecule": "B4", "values": [{"measurement": "binding result", "setting": "[2]", "result": "no binding"}]}]}
